Experiments:
[1] = target: mouse 4-1BB on activated mouse splenocytes (mouse) (UniProt P20334); assay: flow cytometry on activated mouse splenocytes, gate CD8+ T cells; PE anti-human IgG Fc-gamma F(ab')2; median fluorescence, baseline corrected
[2] = target: mouse 4-1BB on activated mouse splenocytes (mouse) (UniProt P20334); assay: flow cytometry on activated mouse splenocytes, gate CD4+ T cells; PE anti-human IgG Fc-gamma F(ab')2; median fluorescence, baseline corrected

Sequence of mouse 4-1BB on activated mouse splenocytes (mouse) (P20334 24-256): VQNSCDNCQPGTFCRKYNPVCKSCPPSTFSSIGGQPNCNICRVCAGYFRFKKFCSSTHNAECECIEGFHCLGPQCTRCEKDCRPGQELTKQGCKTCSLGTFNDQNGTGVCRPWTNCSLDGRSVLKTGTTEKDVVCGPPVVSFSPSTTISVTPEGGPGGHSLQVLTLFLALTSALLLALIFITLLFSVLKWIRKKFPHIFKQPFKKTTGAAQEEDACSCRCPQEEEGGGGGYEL

EC50 (read off the curve) [1]: 0.1 nM
EC50 (read off the curve) [2]: 0.09 nM
Substance: anti-mouse Lob12.3 huIgG1 (antibody)

— patent US20200270321A1
